According to patent publication US20210163601A1 (Amgen, published 2021):

B1: 193E7 (antibody, V domains shown)
VH: QVQLQQWGAGLLKPSETLSLTCAVYGGSFSGYFWTWIRQPPGKGLEWIGEINHSGSTNYNPSLKSRVTISVDTSKNQFSLKLSSVTAADTAVYYCARDYGADYWGQGTLVAVSA
VL: DIQMTQSPSSLSASVGDRVTITCRASQGIRNDLGWYQQKPGKAPKRLIYSASSLQRGVPSRFSGSGSGTEFTLTISSLQPEDFATYYCLQHKRYPLTFGGGTKVEIK
notes: Tested as hybridoma supernatant
B2: 7F4 (antibody, V domains shown)
VH: QLQLQESGPGLVKPSETLSLTCTVSGGSISRSSYYWGWIRQPPGKGLEWIGNIYYSGATYYNPSLKSRVTISVDTSTNQFSLKLSSVTAADTAVYYCARHSGSWSLDYWGQGTLVTVSS
VL: DIQMTQSPSSLSASVGDRVTITCRTSQGIRNDLGWYQQKPGKAPKRLIYAASNLQSGVPSRFSGSGSGTEFTLTISSLQPEDFATYYCLQHSAYPLTFGGGTKVEIK
notes: as for B1
B3: 202A3 (antibody, V domains shown)
VH: QVQLEQSGAEVKKPGASVKVSCKASGYTFTSYDINWVRQATGQGLEWLGWMNPKRGNTGYAQKFQGRVTMTRNTSISTAHMELSSLRSEDTAVYYCARGRYSREDYYYYYDMDVWGQGTTVTVSS
VL: DIQMSQSPSSLSASVGDRVTITCRASQGIRNDLGWYQQKPGKAPKRLICAASRLQSGVPSRFSGSGSGTEFTLTISSLQPEDFAIYYCLQHHDYPFTFGPGTKVDIK
notes: as for B1
B4: 176H4 (antibody, V domains shown)
VH: QVQLVESGGGVVQPGRSLRLSCAASGFTFSSYGMHWVRQAPGKGLEWVAIIWYDGSYKYYADSVKGRFTISRDNSKNTLYLQMSSLRAEDTAVYYCARDAHDFWSGYFAYWGQGALVTVSS
VL: DIVMTQTPLSLSVTPGQPASISCKSSQSLLHGDGKTYLYWYLQKPGQPPQLLIYEVSNRFSGVPDRFSGSGSGTDFTLKISRVEAEDVGIYYCMQSIQIPWTFGQGTRVEIK
notes: as for B1
B5: 194C10 (antibody, V domains shown)
VH: QVQLQQWGAGLLKPSETLSLTCAVSGGSFRYYYWSWIRQPPGKGLEWFGEINHSGSTNYNPSLKSRVTISIDTSKNQFSLKLRSVTAADTAVYYCARDYGAFDIWGQGTMVTVSS
VL: EIVLTQSPGTLSLSPGERATLSCRASPSVNSGYLAWYQQKPGQTPRLLIFGASSRATGIPDRFSASGSGADFTLTISRLEPEDFAVYFCQQYESSPWTFGQGTKVEIK
notes: as for B1
B6: 12D2 (antibody, V domains shown)
VH: EVQLVESGGGLVKPGGSLRLSCAASGFTFSSYSMNWVRQAPGKGLEWVSSISSSSSYIYYADSVKGRFTISRDNAKNSLYLQMNSLRAEDTAVYYCARLGDYWGQGTLVAVSS
VL: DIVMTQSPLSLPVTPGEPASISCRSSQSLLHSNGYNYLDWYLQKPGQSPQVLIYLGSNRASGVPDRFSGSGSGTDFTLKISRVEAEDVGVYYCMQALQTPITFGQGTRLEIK
notes: as for B1
B7: 56E5 (antibody, V domains shown)
VH: QVQLVQSGAEVKKPGASVKVSCQASGYTFTGYHMHWVRQAPGQGLEWMGWINPNNNATNYAQKFQGRVTMTRDTSISTAYMELRRLRSDDTAVYHCARDGTSSFDYWGQGTLVTVSS
VL: DIQMTQSPSSVSASVGDRVTITCRASQGIRKWLAWYQQKPGKAPKLLIYAASSLQSGVPSRFSGSGSGTDFTLTISSLQPEDFATYYCQQANSFPFTFGPGTKVDIK
notes: as for B1
B8: 198D2 (antibody, V domains shown)
VH: QVQLVESGGGVVQPGRSLRLSCAASGFTFRSYGMHWVRQAPGKGLEWVAVIIYDGSYKYYADSVKGRFTISRDNSKNTLYLQMNSLRAEDTAVYYCARTYSGGMDVWGQGTTVTVSS
VL: QSVLTQPPSVSAAPGQKVTISCSGSSSNIGSNYVSWYQQLPGTAPKVLIYDNNKRPSGIPDRFSGSKSGTSATLGITGLQTGDEADYYCGTWDSRLNVGVFGGGTKLTVL
notes: as for B1

The binders below were run against T1, Soluble ASGR-1 (recombinant, biotinylated) (human, UniProt P07306 62-291, limits assumed, biotinylated) (assay: limiting antigen bead FACS; biotinylated soluble ASGR-1 coated at 2.5 ng/mL on LumAvidin beads;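 note: hybridoma supernatants of ligand-competing antibodies bound to antigen-loaded beads, read by flow cytometry on an iQue Screener in calcium-containing buffer, higher fluorescence meaning stronger relative affinity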).
T1 construct: also called recombinant, soluble ASGR-1 biotinylated protein
T1 sequence: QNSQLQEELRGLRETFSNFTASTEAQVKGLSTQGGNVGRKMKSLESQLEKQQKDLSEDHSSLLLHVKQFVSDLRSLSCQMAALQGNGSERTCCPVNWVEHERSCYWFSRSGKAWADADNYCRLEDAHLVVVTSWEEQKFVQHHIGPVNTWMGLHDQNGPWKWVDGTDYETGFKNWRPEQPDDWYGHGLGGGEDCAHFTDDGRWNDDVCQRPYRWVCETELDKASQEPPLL
For B1, the “FACS Geomean” value was 18300. B2 was tested, and the “FACS Geomean” value was 4910. With B3 the “FACS Geomean” value was 2150. In the case of B4, the “FACS Geomean” value is reported as 29400. In the case of B5, the “FACS Geomean” value is reported as 21900. For B6, the “FACS Geomean” value was 105. With B7 the “FACS Geomean” value was 22600. In the case of B8, the “FACS Geomean” value is reported as 1870.
